The values below come from paper PMC10599462, “Molecular basis of sulfolactate synthesis by sulfolactaldehyde dehydrogenase from Rhizobium leguminosarum” (Chemical Science, 2023).

Series [1] has as its target T1, RlGabD (SLA dehydrogenase) (Rhizobium leguminosarum, UniProt A0AAJ6N661).
T1 sequence (A0AAJ6N661 1-489): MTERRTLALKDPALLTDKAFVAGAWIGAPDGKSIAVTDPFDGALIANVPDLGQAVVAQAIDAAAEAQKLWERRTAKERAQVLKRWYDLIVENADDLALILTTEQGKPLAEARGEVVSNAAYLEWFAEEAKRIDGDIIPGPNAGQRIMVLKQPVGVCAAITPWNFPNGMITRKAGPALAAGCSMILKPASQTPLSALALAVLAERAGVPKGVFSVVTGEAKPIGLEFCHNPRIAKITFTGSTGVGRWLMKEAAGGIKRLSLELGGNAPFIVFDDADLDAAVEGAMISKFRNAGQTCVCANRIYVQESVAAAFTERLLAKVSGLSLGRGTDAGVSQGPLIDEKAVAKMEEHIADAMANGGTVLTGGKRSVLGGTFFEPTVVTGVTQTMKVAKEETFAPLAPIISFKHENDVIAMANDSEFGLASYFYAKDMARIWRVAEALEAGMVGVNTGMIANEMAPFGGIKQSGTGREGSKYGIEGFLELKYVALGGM
The series can be described thus: enzyme inhibition assay with constant SLA and NAD+. The class given is biochemical. On the set-up: gene EV132_10158; recombinant RlGabD.

Series [2] deals with SLA dehydrogenase RlGabD from Rhizobium leguminosarum SRDI565 (Rhizobium leguminosarum bv. trifolii SRDI565). The series can be described thus: SEC-MALS; SEC-MALLS of RlGabD in solution; homotetramer. In general terms: In gel filtration, larger molecules generally elute earlier.
Series [3] addresses T1, RlGabD (SLA dehydrogenase). The series can be described thus: biochemical. Further details: gene EV132_10158; recombinant RlGabD; nanoDSF thermal shift (F350/F330 intrinsic fluorescence) of recombinant RlGabD with ligand. Particulars: nanoDSF, average of 2 replicates; read-out: ∆Tm (Avg). (In general: DSF heats the sample and reads unfolding from a dye or from intrinsic fluorescence.)

Series [4] has as its target T1, RlGabD (SLA dehydrogenase). The series can be described thus: biochemical. Further details: gene EV132_10158; recombinant RlGabD; nanoDSF thermal shift (F350/F330 intrinsic fluorescence) of recombinant RlGabD with ligand. Particulars: nanoDSF, average of 2 replicates; read-out: ∆Tm (Avg). The source holds these as a separate data set.
In series [5] the target is T1, RlGabD (SLA dehydrogenase). The experiment in a line: cryo-EM structure of binary complex at […] Å. It is filed as binding. Further details: gene EV132_10158; recombinant RlGabD tetramer.
Substrate in series [6]: NC(=O)c1ccc[n+]([C@@H]2O[C@H](COP(=O)([O-])OP(=O)(O)OC[C@H]3O[C@@H](n4cnc5c(N)ncnc54)[C@H](O)[C@@H]3O)[C@@H](O)[C@H]2O)c1
The experiment in a line: purified protein. It is filed as biochemical, Rhizobium leguminosarum. Particulars: binds first to enzyme (rapid equilibrium ordered mechanism); varied: cofactor.

Substrate in series [7]: O=CC(O)CS(=O)(=O)O
The experiment in a line: purified protein. Particulars: NAD+ proposed: Cys295 nucleophile, Glu261 general base, Asn163 oxyanion hole, Arg171/Arg289 sulfonate binding. The class given is biochemical, Rhizobium leguminosarum.

Substrate in series [8]: NC(=O)c1ccc[n+]([C@@H]2O[C@H](COP(=O)([O-])OP(=O)(O)OC[C@H]3O[C@@H](n4cnc5c(N)ncnc54)[C@H](OP(=O)(O)O)[C@@H]3O)[C@@H](O)[C@H]2O)c1
The experiment in a line: purified protein. Particulars: […]′-phosphate binding residues Ser179 and Lys182 (E. coli SSADH numbering) conserved; varied: cofactor.

Substrate in series [9]: O=CC(O)COP(=O)(O)O
The series can be described thus: purified protein. Particulars: NADP+.

Like-named read-outs stand apart in the source and are kept apart here.

Take `NC(=O)C1=CN([C@@H]2O[C@H](COP(=O)(O)OP(=O)(O)OC[C@H]3O[C@@H](n4cnc5c(N)ncnc54)[C@H](O)[C@@H]3O)[C@@H](O)[C@H]2O)CCC1` [tetrahydro-NADH]: in series [1], the IC50 – broadly, the concentration needed to halve the response being measured – was 28 µM.
In the case of “SLA dehydrogenase RlGabD from Rhizobium leguminosarum SRDI565 (enzyme)”, in series [2], the stoichiometry N (as a rule, a count of units in the complex or per binding partner) was 4.
In the case of `NC(=O)c1ccc[n+]([C@@H]2O[C@H](COP(=O)([O-])OP(=O)(O)OC[C@H]3O[C@@H](n4cnc5c(N)ncnc54)[C@H](OP(=O)(O)O)[C@@H]3O)[C@@H](O)[C@H]2O)c1` [NADP^+], the ΔTm at 10000 µM in series [3] amounted to 3.5 °C.
On to `NC(=O)C1=CN([C@@H]2O[C@H](COP(=O)(O)OP(=O)(O)OC[C@H]3O[C@@H](n4cnc5c(N)ncnc54)[C@H](OP(=O)(O)O)[C@@H]3O)[C@@H](O)[C@H]2O)C=CC1` [NADPH], for which, in series [4], the ΔTm at 10000 µM stood at 2.5 °C.
For `NC(=O)c1ccc[n+]([C@@H]2O[C@H](COP(=O)([O-])OP(=O)(O)OC[C@H]3O[C@@H](n4cnc5c(N)ncnc54)[C@H](O)[C@@H]3O)[C@@H](O)[C@H]2O)c1` [NAD^+], in [3], the ΔTm at 10000 µM is 4.3 °C.
Turning to `NC(=O)C1=CN([C@@H]2O[C@H](COP(=O)(O)OP(=O)(O)OC[C@H]3O[C@@H](n4cnc5c(N)ncnc54)[C@H](O)[C@@H]3O)[C@@H](O)[C@H]2O)C=CC1` [NADH], the ΔTm at 10000 µM in series [3] was 1.5 °C. Besides, in series [5], the “cryo-EM structure of binary complex at 2.52 Å” value was “The RlGabD·NADH complex shows the binding mode and positioning of the cofactor”.

B1: RlGabD (SLA dehydrogenase) (Rhizobium leguminosarum bv. trifolii SRDI565) (protein)
chain: MTERRTLALKDPALLTDKAFVAGAWIGAPDGKSIAVTDPFDGALIANVPDLGQAVVAQAIDAAAEAQKLWERRTAKERAQVLKRWYDLIVENADDLALILTTEQGKPLAEARGEVVSNAAYLEWFAEEAKRIDGDIIPGPNAGQRIMVLKQPVGVCAAITPWNFPNGMITRKAGPALAAGCSMILKPASQTPLSALALAVLAERAGVPKGVFSVVTGEAKPIGLEFCHNPRIAKITFTGSTGVGRWLMKEAAGGIKRLSLELGGNAPFIVFDDADLDAAVEGAMISKFRNAGQTCVCANRIYVQESVAAAFTERLLAKVSGLSLGRGTDAGVSQGPLIDEKAVAKMEEHIADAMANGGTVLTGGKRSVLGGTFFEPTVVTGVTQTMKVAKEETFAPLAPIISFKHENDVIAMANDSEFGLASYFYAKDMARIWRVAEALEAGMVGVNTGMIANEMAPFGGIKQSGTGREGSKYGIEGFLELKYVALGGM
notes: recombinant RlGabD
For B1, the Km (as a rule, the substrate concentration at which the rate is half of its maximum) in “purified protein [6]” came to 81 ± 19 µM; in “purified protein [7]”, 130 ± 40 µM; in “purified protein [8]”, 17 ± 4.1 µM; in the series “purified protein [9]” it was 170 ± 28 µM. The kcat (commonly the number of substrate molecules converted per active site and unit of time at saturation) is 17.7 ± 3.2 s⁻¹ in “purified protein [6]”, 17.8 ± 7 s⁻¹ in the series “purified protein [7]”, 4.1 s⁻¹ in the series “purified protein [8]” and 3 s⁻¹ in the series “purified protein [9]”. For the same molecule, the kcat/Km (as a rule, the second-order rate constant that governs catalysis at low substrate concentration) in “purified protein [6]” worked out at 210000 ± 63000 M⁻¹ s⁻¹; in “purified protein [7]” it was 137000 ± 72000 M⁻¹ s⁻¹; in “purified protein [8]” it was 240000 M⁻¹ s⁻¹; in “purified protein [9]” it was 10500 M⁻¹ s⁻¹.
